The assay deals with H1299 cells. The experiment in a line: Cell cycle analysis by flow cytometry. Format: cell-based, human. To be noted: H1299 cells infected with adenovirus expressing p53, 72 hours after infection. The procedure: FIG. 5. […] 72 hours after infection, cells were harvested and their cell cycle profile was analyzed (see materials and methods). B-C.
Flow cytometry was performed as described previously by Knights, C. D., et al. J. Cell Biol. 173(4):533-544 (2006).

For 1 molecule, apoptotic cells results are on record in patent US20130288275A1, “COMPOSITIONS AND METHODS FOR DETECTING ACETYLATED SUMO PROTEINS” (Georgetown University, priority 2010, published 2013).

B1: SUMO-1K37-48R: SUMO-1 mutant with lysines K37-K39 and K45, K46 and K48 substituted with arginine (protein, UniProt P63165 2-97, looked up, variant K37R K39R K45R K46R K48R)
Small ubiquitin-related …: SDQEAKPSTEDLGDKKEGEYIKLKVIGQDSSEIHFRVRMTTHLRRLRESYCQRQGVPMNSLRFLFEGQRIADNHTPKELGMEEEDVIEVYQEQTGG
B1 displayed an apoptotic cells of approximately 2%.
